Experimental data: publication PMC3269379, “The Host-Pathogen interaction of human cyclophilin A and HIV-1 Vpr requires specific N-terminal and novel C-terminal domains” (BMC Structural Biology, 2011)
Where two headings read alike, the source gives them in different places.

Target: human cyclophilin A (human) (UniProt P62937)
Assay: SPR

Sequence of human cyclophilin A (human) (P62937 whole entry): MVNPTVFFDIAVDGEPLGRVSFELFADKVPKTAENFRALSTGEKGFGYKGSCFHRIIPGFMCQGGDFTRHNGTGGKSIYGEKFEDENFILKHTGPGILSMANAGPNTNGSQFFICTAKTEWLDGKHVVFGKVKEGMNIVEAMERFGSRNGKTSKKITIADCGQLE
Sequence of HIV-1 capsid (CA) (O93182 133-363): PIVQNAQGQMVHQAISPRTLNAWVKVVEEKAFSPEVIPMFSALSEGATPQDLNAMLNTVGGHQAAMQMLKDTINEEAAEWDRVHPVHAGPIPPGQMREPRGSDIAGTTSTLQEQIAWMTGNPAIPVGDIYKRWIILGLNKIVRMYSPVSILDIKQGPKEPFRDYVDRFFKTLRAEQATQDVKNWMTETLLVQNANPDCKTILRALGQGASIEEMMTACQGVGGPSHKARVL

Substance | Kd (cited from earlier work) [µM] | Kd [µM] | koff [s⁻¹] | kon [M⁻¹ s⁻¹]
HIV-1 capsid (CA) (from UniProt O93182) | 16 | – | – | –
Vpr^75-90 (R76Q, V83I, R80A, T84I) (peptide) | – | 2.7 | 0.095 | 42000
Vpr^75-90 (R76Q, V83I, T84I) (peptide) | – | 4.7 | 0.071 | 16000
